Tests used:
[1] = target: T1, human VLA4-Fc (alpha4-Fc/beta1-Fc heterodimer) (human); test: SPR (BIACORE), VLA4-Fc captured by anti-human IgG, 1 mM MnCl2, 1:1 Langmuir; standard BIACORE assay, first preparation (Table 5A); activated VLA4 (Mn2+)
T1 construct: Soluble heterodimer from CHO cells, Protein A purified; also called VLA-Fc
Description: All BIACORE analyses were performed on a BIACORE 2000 system or BIACORE 3000 system (GE Healthcare) at room temperature (RT, 25° C.), HBS-P buffer (10 mM Hepes (pH 7.4), 150 mM NaCl, 0.005% surfactant P20) supplemented with 1 mM MnCl₂ (HBS-P-Mn) was used as the flow buffer for all experiments except where indicated.
The kinetic 2D-VCAM-1 assay measures binding kinetics of a dimeric ligand (e.g., VLA-Fc fusion protein or LPAM-1-Fc fusion protein) coated to sensor chips and monomeric analyte (e.g., 2D-VCAM-1 variant polypeptides) in the mobile phase. Goat anti-human IgG antibody (Jackson ImmunoResearch, Catalog No. 105-005-098) was immobilized on CM-5 sensor chips (GE Healthcare, Catalog No. BR-1000-14) according to the manufacturer's protocol. Antibody was diluted to 30 μg/ml in immobilization buffer (10 mM sodium acetate, pH 5.0 (GE Healthcare, Catalog No. BR-1003-51)). […] Un-reacted sites were quenched with 35 μl of 1 M ethanolamine-HCl pH 8.5 (GE Healthcare, Catalog No. BR-1000-50). This procedure typically yielded 15,000 response units (RU) of coupled antibody. VLA4-Fc or LPAM-1-Fc, prepared as described in Examples 3 and 4, respectively, were bound to antibody-coated sensor chips by injection of 20 μl of ligand solution (20 μg/ml protein in HBS-P-Mn buffer at a flow rate of 10 μl/min). Ligand capture levels were typically 200-300 RU. […]

[2] = target: T2, human VLA4 (integrin alpha4beta1) on the surface of U937 cells (human, UniProt P13612 34-1032; P05556 21-798); test: static cell adhesion assay: U937 cells on immobilized 7D-VCAM-1 in the presence of the soluble polypeptide; blocked ligand: immobilized 7D-VCAM-1 (Example 13)
T2 construct: whole, on cells; Endogenous VLA4 of U937 cells; assay buffer held 1 mM each of CaCl2, MgCl2 and MnCl2; also called cell-surface human VLA4
Description: Prior to assaying, the U937 cells were re-suspended in labeling buffer (RPMI 1640 culture media without phenol red, 10% FBS; Invitrogen), then labeled with 0.5 μg/ml Calcein-AM at 37° C. for 30 minutes on a rotator. Subsequently, the cells were washed three times with labeling buffer then resuspended at 5×10^6 cells/ml in assay buffer (HEPES CaMgMn buffer: 50 mM HEPES, 150 mM NaCl, 1 mM CaCl₂, 1 mM MgCl₂, 1 mM MnCl2 pH 7.4).
The test compounds (i.e., the 2D-VCAM-1 variant polypeptides) were diluted in dilution buffer and added to VCAM-1-coated plates. […] Plates were spun down at 280×g for 5 minutes with assay buffer decanted by inversion before measuring fluorescence intensity (excitation=485 nm, emission=530 nm) with LJL Analyst HT 96.384 (Molecular Devices, Sunnyvale, Calif.).
FIG. 5 is a graph showing the cell adhesion index for anti-VLA4-antibody (used as a positive control for maximal inhibition of cell adherence), dilution buffer alone (“no treatment”, a control to show maximal cell adherence to the immobilized VCAM-1), 2D-VCAM-1 valiant Clone 46 (SEQ ID NO:12), Q38L-2D-VCAM-1 polypeptide (SEQ ID NO:10), and human 2D-VCAM-1 (SEQ ID NO:2). The cell adhesion index was calculated as (fluorescence intensity, VCAM-coated well)/(fluorescence intensity, non-CAM-1-coated well). […]

T2 sequence (P13612 34-1032, chain 1 of 2): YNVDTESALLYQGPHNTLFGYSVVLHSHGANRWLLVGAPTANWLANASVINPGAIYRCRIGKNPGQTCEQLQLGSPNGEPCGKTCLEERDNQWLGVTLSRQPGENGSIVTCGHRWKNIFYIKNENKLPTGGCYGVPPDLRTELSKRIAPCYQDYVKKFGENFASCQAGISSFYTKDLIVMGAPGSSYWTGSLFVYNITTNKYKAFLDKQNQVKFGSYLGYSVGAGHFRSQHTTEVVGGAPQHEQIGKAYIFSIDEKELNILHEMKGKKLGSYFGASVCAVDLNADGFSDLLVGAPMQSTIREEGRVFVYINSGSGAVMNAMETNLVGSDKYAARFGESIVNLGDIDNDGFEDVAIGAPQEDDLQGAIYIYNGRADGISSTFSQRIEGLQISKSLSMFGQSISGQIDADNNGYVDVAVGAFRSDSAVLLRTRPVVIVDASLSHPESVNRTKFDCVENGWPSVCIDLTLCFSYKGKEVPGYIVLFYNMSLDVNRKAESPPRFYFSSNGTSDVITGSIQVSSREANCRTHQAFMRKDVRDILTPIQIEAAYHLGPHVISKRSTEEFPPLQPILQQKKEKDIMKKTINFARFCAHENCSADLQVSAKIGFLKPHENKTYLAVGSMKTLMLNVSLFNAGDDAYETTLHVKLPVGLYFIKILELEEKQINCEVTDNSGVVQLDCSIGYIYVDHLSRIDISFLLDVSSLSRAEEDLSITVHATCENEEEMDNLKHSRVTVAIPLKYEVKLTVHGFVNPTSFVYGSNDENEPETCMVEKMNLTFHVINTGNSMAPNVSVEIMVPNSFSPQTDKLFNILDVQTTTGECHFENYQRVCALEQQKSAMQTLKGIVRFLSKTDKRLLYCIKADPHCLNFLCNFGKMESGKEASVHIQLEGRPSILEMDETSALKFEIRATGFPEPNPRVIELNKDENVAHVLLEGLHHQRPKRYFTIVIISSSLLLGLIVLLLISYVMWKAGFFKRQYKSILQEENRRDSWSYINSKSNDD
T2 sequence (P05556 21-798, chain 2 of 2): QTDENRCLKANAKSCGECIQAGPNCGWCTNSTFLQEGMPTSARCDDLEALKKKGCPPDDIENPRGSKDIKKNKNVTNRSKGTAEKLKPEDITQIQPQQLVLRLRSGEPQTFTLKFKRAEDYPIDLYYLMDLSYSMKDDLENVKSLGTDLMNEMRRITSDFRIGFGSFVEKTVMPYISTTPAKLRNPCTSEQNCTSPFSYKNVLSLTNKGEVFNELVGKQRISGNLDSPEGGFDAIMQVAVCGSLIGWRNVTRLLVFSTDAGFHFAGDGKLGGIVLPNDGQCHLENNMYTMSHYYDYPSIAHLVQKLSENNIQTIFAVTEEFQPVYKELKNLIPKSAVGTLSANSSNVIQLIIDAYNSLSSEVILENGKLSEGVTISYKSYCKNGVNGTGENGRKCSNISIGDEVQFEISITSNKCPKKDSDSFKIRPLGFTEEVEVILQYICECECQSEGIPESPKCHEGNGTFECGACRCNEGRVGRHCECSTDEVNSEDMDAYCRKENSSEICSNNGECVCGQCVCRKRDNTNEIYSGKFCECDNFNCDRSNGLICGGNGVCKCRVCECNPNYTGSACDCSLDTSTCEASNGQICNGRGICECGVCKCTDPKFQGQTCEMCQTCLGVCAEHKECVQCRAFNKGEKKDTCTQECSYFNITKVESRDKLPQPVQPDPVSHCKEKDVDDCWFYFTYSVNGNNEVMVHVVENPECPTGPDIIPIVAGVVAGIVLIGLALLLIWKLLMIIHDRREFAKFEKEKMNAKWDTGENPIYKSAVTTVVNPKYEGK
T1 sequence (chain, as listed by the source limits assumed, form in doubt, chain 1 of 2): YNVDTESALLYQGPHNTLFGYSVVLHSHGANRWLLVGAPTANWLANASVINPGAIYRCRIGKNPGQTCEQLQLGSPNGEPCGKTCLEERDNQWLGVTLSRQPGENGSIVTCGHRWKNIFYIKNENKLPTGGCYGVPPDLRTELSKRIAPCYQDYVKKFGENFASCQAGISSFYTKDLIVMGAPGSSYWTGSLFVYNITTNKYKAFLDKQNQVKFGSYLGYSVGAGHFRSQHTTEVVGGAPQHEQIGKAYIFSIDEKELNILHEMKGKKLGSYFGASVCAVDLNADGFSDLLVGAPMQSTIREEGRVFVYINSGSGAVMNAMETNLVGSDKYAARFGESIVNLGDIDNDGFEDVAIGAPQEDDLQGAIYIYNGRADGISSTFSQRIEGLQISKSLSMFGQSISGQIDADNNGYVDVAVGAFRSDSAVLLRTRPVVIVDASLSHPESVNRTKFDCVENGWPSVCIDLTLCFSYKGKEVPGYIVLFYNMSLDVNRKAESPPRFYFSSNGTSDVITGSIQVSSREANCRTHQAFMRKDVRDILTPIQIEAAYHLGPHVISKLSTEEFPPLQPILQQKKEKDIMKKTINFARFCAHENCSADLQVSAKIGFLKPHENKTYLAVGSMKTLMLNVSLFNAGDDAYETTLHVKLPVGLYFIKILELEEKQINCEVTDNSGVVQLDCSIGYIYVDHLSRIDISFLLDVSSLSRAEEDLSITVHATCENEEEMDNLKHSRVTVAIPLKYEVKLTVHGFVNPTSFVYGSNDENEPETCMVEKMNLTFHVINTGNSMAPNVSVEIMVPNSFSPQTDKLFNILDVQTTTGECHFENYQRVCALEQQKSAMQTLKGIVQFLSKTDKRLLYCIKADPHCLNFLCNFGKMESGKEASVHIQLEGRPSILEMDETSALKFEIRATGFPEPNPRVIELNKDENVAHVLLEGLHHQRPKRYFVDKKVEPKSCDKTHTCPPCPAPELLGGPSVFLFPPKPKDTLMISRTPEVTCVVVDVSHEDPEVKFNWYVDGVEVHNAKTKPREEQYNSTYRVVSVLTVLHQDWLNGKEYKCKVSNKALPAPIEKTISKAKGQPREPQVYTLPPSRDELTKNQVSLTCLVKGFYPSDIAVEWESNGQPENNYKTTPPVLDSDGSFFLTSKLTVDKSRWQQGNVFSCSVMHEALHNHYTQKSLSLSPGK
T1 sequence (chain, as listed by the source limits assumed, form in doubt, chain 2 of 2): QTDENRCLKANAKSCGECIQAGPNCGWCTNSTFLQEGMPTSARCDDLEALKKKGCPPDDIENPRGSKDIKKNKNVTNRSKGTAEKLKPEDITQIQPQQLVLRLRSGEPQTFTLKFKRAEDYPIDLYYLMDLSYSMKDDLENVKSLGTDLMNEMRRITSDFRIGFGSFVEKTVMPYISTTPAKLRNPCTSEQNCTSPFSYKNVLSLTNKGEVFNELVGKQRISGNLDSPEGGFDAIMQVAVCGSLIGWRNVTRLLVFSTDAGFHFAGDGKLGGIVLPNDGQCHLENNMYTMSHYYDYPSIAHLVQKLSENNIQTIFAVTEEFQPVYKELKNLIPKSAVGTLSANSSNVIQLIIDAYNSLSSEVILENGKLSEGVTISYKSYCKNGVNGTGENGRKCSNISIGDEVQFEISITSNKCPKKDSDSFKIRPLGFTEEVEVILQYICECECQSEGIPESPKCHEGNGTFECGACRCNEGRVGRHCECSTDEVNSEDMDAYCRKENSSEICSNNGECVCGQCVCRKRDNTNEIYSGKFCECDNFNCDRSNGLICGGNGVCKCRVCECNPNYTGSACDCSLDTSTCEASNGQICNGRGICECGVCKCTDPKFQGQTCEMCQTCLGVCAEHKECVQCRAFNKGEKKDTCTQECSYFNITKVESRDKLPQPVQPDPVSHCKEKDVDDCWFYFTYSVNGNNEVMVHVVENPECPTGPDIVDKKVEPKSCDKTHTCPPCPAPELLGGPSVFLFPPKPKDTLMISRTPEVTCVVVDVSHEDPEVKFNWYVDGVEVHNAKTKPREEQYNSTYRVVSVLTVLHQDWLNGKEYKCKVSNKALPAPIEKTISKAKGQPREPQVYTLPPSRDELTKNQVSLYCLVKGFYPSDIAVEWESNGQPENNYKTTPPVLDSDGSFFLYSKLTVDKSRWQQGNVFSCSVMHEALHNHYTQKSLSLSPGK

B1: 2D-VCAM-1 variant Clone 146 (ligand, not shown: small tags and cut ends)
chain: FKIETTPESRYLAQIGDSVSLTCSTTGCESPLFFWRPLLDSPLNGKVTNEGTTSTLTMNPVSFGNEHSYLCTARCESRSLEKGIQVEIYSFPKDPEIHLSGPLEAGKPITVKCSVADVYPFDRLEIDLLKGDHLMKSQEFLEDADRKSLETKSLEVTFTPVIEDIGKVLVCRAKLHIDEMDSVPTVRQAVKELQVYISP
Work on B1 yielded a Kd [1] of 0.0497 nM.

B2: Q38L-2D-VCAM-1 (ligand)
chain: FKIETTPESRYLAQIGDSVSLTCSTTGCESPFFSWRTLIDSPLNGKVTNEGTTSTLTMNPVSFGNEHSYLCTATCESRKLEKGIQVEIYSFPKDPEIHLSGPLEAGKPITVKCSVADVYPFDRLEIDLLKGDHLMKSQEFLEDADRKSLETKSLEVTFTPVIEDIGKVLVCRAKLHIDEMDSVPTVRQAVKELQVYISP
notes: also called Q38L 2D-VCAM-1 polypeptide; not shown: His tag
B2: binds [2].
